From the supplement of paper PMC10065799, “High-throughput profiling of sequence recognition by tyrosine kinases and SH2 domains using bacterial peptide display” (eLife, 2023)
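Note: 11-residue human phosphosite peptides and single-mutation variants displayed on the E. coli surface, counted by deep sequencing, each peptide's frequency after selection divided by its frequency in the unselected input library; frequency after pTyr selection over input frequency; kinase dosed for 20-30% of maximal phosphorylation in three min.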

The sequences below were run against EPHB2 (UniProt P29323) (assay: phosphorylation enrichment, bacterial display (enrichment ratio); higher = better substrate or ligand; peptides without Tyr show the background).
Sequence of EPHB2 (P29323 whole entry, looked up): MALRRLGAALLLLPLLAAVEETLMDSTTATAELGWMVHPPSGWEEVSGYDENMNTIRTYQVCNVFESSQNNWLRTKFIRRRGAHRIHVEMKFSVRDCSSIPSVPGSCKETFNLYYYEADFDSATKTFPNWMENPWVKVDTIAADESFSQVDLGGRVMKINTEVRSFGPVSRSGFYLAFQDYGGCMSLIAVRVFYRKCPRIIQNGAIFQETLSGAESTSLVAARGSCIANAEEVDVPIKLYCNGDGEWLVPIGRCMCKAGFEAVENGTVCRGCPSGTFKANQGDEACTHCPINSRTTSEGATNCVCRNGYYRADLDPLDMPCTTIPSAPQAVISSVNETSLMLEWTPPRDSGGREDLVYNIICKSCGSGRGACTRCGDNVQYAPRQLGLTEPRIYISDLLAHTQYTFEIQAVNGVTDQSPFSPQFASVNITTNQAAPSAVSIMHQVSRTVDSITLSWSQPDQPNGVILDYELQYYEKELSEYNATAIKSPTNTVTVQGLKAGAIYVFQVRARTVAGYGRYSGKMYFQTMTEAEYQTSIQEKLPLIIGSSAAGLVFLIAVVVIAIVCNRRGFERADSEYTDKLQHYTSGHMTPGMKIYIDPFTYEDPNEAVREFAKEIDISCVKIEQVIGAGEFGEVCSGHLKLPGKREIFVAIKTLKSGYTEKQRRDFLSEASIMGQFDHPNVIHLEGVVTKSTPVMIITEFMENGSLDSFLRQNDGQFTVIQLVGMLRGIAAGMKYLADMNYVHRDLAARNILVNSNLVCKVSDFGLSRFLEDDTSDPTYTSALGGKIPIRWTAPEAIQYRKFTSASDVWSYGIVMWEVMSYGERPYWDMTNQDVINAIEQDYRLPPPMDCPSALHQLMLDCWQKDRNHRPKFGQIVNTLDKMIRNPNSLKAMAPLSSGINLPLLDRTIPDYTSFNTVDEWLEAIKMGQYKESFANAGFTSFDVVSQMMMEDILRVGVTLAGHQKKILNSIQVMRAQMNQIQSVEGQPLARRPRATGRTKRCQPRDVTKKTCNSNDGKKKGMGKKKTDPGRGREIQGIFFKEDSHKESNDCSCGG
In the case of EPNSRYTCKLE [USH2A_Y3745_Y3747C], the phosphorylation enrichment is reported as 0.562.
RAEAPYLLVSN [LRIG1_Y1054_Q1053P] was tested, and the phosphorylation enrichment was 0.36.
In the case of SEDSEYYRAFE [CASQ2_Y178_K180R], the phosphorylation enrichment is reported as 0.696.
In the case of CEHRGCLFLAI [TEK_Y897_Y897C_YF], the phosphorylation enrichment is reported as 0.468.
NPQKSYFIRLY [WAS_Y83] showed a phosphorylation enrichment of 0.637.
RAHARYCADAC [ACOT4_Y52_R57C] was tested, and the phosphorylation enrichment was 0.499.
KRPAVYIDEEA [EPM2A_Y304] showed a phosphorylation enrichment of 0.514.
KRLAVYIDEEA [EPM2A_Y304_P301L] gave a phosphorylation enrichment of 0.615.
VVDVTYDDVPI [FLNB_Y1308_E1305D] showed a phosphorylation enrichment of 1.23.
With ESKKHYGFSLF [ANXA3_Y295_F291S_YF] the phosphorylation enrichment was 0.541.
DLLMQHPKAQG [FAM83C_Y600_Y600H] gave a phosphorylation enrichment of 0.332.
WHHTFYNELCV [ACTC1_Y93_R97C] showed a phosphorylation enrichment of 0.658.
TVQVAYYTVMM [SPATA17_Y83_M86V] was tested, and the phosphorylation enrichment was 1.61.
Sequence PKSWNYELPAT [PROM1_Y34_A31S] has a phosphorylation enrichment of 1.67.
LEKISYVFMKR [SSX7_Y48_YF] gave a phosphorylation enrichment of 1.21.
CLAKMYFSAVE [CP_Y539_D544E_YF] was tested, and the phosphorylation enrichment was 0.552.
Work on GEAEQYVGGGG [FAT4_Y4980] yielded a phosphorylation enrichment of 0.414.
For EGTATYAAAIL [JUP_Y644_V648I], the phosphorylation enrichment was 1.76.
SGVSYYINLCQ [IGF2R_Y2025_N2020S] was tested, and the phosphorylation enrichment was 0.635.
In the case of GLDGSYLLTDS [SH2D1A_Y29_R32T], the phosphorylation enrichment is reported as 0.541.
Work on NYRPGYNNFYN [USH2A_Y467] yielded a phosphorylation enrichment of 0.602.
For VDTLWYKFLKR [EPM2A_Y86_F84L], the phosphorylation enrichment was 0.763.
GGEEFYVHFVG [KAT8_Y90_R86G_YF] was tested, and the phosphorylation enrichment was 0.605.
With RKVAQYMLENE [SLC16A6_Y224_E221V] the phosphorylation enrichment was 0.901.
Sequence FRDMDYRSFPH [RBM10_Y41_R46H_YF] has a phosphorylation enrichment of 0.388.
For SKHRLYSDLQT [PTCHD1_Y84], the phosphorylation enrichment was 0.484.
Sequence NCLRQYVAGRF [CRB1_Y711_E710Q] has a phosphorylation enrichment of 0.492.
KSEMSYIDGEK [SORBS1_Y485] was tested, and the phosphorylation enrichment was 0.999.
GFAGKYIAMVM [CYP19A1_Y441_C437Y_YF] gave a phosphorylation enrichment of 0.823.
YSIDHYLGKEM [G6PD_Y202_R198S] gave a phosphorylation enrichment of 0.561.
For PDDPDYSLVDD [PSTPIP2_Y323_N322D], the phosphorylation enrichment was 0.963.

These sequences were tested against FGFR1 (UniProt P11362) in the same assay as above.
Sequence of FGFR1 (P11362 whole entry, looked up): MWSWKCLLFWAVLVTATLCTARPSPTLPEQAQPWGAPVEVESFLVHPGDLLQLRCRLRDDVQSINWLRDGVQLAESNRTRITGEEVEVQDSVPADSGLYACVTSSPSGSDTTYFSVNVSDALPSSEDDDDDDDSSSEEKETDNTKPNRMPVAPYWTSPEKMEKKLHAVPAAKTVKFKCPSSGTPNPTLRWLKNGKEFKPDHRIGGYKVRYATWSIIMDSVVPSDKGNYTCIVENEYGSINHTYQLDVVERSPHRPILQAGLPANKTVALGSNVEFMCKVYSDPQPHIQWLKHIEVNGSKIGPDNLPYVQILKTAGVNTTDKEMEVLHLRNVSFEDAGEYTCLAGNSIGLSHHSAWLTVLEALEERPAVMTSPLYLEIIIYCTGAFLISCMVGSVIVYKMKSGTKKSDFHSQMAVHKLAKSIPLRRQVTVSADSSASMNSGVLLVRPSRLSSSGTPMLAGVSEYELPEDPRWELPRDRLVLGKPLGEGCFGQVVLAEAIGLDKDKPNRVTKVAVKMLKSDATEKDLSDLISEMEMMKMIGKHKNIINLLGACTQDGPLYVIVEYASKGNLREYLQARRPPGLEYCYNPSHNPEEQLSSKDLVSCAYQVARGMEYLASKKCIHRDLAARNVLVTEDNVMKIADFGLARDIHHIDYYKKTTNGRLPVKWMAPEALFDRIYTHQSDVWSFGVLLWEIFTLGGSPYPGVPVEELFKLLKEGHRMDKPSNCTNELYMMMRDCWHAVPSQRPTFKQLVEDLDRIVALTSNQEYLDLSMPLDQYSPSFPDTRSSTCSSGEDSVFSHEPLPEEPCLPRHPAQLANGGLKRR
In the case of AGQEDDDRLRP [RAC1_Y64_Y64D], the phosphorylation enrichment is reported as 0.607.
EPNSRYTCKLE [USH2A_Y3745_Y3747C] was tested, and the phosphorylation enrichment was 0.621.
Work on RAEAPYLLVSN [LRIG1_Y1054_Q1053P] yielded a phosphorylation enrichment of 1.72.
For SEDSEYYRAFE [CASQ2_Y178_K180R], the phosphorylation enrichment was 0.869.
CEHRGCLFLAI [TEK_Y897_Y897C_YF] showed a phosphorylation enrichment of 0.455.
Work on NPQKSYFIRLY [WAS_Y83] yielded a phosphorylation enrichment of 0.486.
RAHARYCADAC [ACOT4_Y52_R57C] showed a phosphorylation enrichment of 0.436.
For KRPAVYIDEEA [EPM2A_Y304], the phosphorylation enrichment was 0.598.
KRLAVYIDEEA [EPM2A_Y304_P301L] was tested, and the phosphorylation enrichment was 0.514.
In the case of VVDVTYDDVPI [FLNB_Y1308_E1305D], the phosphorylation enrichment is reported as 0.506.
For ESKKHYGFSLF [ANXA3_Y295_F291S_YF], the phosphorylation enrichment was 0.572.
Work on DLLMQHPKAQG [FAM83C_Y600_Y600H] yielded a phosphorylation enrichment of 0.5.
Sequence WHHTFYNELCV [ACTC1_Y93_R97C] has a phosphorylation enrichment of 0.881.
With TVQVAYYTVMM [SPATA17_Y83_M86V] the phosphorylation enrichment was 5.72.
PKSWNYELPAT [PROM1_Y34_A31S] gave a phosphorylation enrichment of 1.39.
Sequence LEKISYVFMKR [SSX7_Y48_YF] has a phosphorylation enrichment of 0.969.
CLAKMYFSAVE [CP_Y539_D544E_YF] showed a phosphorylation enrichment of 0.599.
GEAEQYVGGGG [FAT4_Y4980] gave a phosphorylation enrichment of 0.543.
Work on EGTATYAAAIL [JUP_Y644_V648I] yielded a phosphorylation enrichment of 0.476.
Sequence SGVSYYINLCQ [IGF2R_Y2025_N2020S] has a phosphorylation enrichment of 0.543.
In the case of GLDGSYLLTDS [SH2D1A_Y29_R32T], the phosphorylation enrichment is reported as 0.483.
Sequence NYRPGYNNFYN [USH2A_Y467] has a phosphorylation enrichment of 0.637.
Work on VDTLWYKFLKR [EPM2A_Y86_F84L] yielded a phosphorylation enrichment of 0.414.
GGEEFYVHFVG [KAT8_Y90_R86G_YF] gave a phosphorylation enrichment of 0.648.
For RKVAQYMLENE [SLC16A6_Y224_E221V], the phosphorylation enrichment was 0.648.
FRDMDYRSFPH [RBM10_Y41_R46H_YF] was tested, and the phosphorylation enrichment was 0.577.
SKHRLYSDLQT [PTCHD1_Y84] gave a phosphorylation enrichment of 0.339.
NCLRQYVAGRF [CRB1_Y711_E710Q] gave a phosphorylation enrichment of 0.382.
With KSEMSYIDGEK [SORBS1_Y485] the phosphorylation enrichment was 0.659.
In the case of GFAGKYIAMVM [CYP19A1_Y441_C437Y_YF], the phosphorylation enrichment is reported as 0.454.
In the case of YSIDHYLGKEM [G6PD_Y202_R198S], the phosphorylation enrichment is reported as 0.589.
With PDDPDYSLVDD [PSTPIP2_Y323_N322D] the phosphorylation enrichment was 0.568.

What follows are sequences tested against Hck (UniProt P08631) in the same assay as above.
Sequence of Hck (P08631 whole entry, looked up): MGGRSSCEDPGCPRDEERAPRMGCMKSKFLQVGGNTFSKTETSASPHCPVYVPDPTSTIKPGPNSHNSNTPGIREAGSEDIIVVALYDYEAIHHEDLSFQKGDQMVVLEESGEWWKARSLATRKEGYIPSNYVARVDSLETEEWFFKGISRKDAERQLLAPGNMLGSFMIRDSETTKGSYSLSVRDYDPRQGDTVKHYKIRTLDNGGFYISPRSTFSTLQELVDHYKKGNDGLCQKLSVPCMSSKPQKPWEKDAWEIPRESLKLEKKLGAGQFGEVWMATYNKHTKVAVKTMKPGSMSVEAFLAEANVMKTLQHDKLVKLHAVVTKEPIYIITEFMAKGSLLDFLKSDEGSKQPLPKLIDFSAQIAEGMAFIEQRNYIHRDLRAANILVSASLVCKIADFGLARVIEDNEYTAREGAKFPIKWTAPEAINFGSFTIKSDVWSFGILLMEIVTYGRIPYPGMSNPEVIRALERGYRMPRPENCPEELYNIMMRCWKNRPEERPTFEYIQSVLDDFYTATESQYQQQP
AGQEDDDRLRP [RAC1_Y64_Y64D] gave a phosphorylation enrichment of 0.591.
EPNSRYTCKLE [USH2A_Y3745_Y3747C] showed a phosphorylation enrichment of 0.549.
RAEAPYLLVSN [LRIG1_Y1054_Q1053P] gave a phosphorylation enrichment of 0.564.
Sequence SEDSEYYRAFE [CASQ2_Y178_K180R] has a phosphorylation enrichment of 0.685.
For CEHRGCLFLAI [TEK_Y897_Y897C_YF], the phosphorylation enrichment was 0.38.
With NPQKSYFIRLY [WAS_Y83] the phosphorylation enrichment was 0.452.
RAHARYCADAC [ACOT4_Y52_R57C] was tested, and the phosphorylation enrichment was 0.45.
Sequence KRPAVYIDEEA [EPM2A_Y304] has a phosphorylation enrichment of 0.485.
With KRLAVYIDEEA [EPM2A_Y304_P301L] the phosphorylation enrichment was 0.496.
VVDVTYDDVPI [FLNB_Y1308_E1305D] was tested, and the phosphorylation enrichment was 1.3.
ESKKHYGFSLF [ANXA3_Y295_F291S_YF] gave a phosphorylation enrichment of 0.528.
Work on DLLMQHPKAQG [FAM83C_Y600_Y600H] yielded a phosphorylation enrichment of 0.523.
In the case of WHHTFYNELCV [ACTC1_Y93_R97C], the phosphorylation enrichment is reported as 1.18.
In the case of TVQVAYYTVMM [SPATA17_Y83_M86V], the phosphorylation enrichment is reported as 1.74.
For PKSWNYELPAT [PROM1_Y34_A31S], the phosphorylation enrichment was 1.26.
For LEKISYVFMKR [SSX7_Y48_YF], the phosphorylation enrichment was 1.14.
For CLAKMYFSAVE [CP_Y539_D544E_YF], the phosphorylation enrichment was 0.663.
For GEAEQYVGGGG [FAT4_Y4980], the phosphorylation enrichment was 0.44.
Work on EGTATYAAAIL [JUP_Y644_V648I] yielded a phosphorylation enrichment of 1.21.
Work on SGVSYYINLCQ [IGF2R_Y2025_N2020S] yielded a phosphorylation enrichment of 0.51.
GLDGSYLLTDS [SH2D1A_Y29_R32T] gave a phosphorylation enrichment of 0.435.
NYRPGYNNFYN [USH2A_Y467] gave a phosphorylation enrichment of 0.621.
With VDTLWYKFLKR [EPM2A_Y86_F84L] the phosphorylation enrichment was 0.441.
GGEEFYVHFVG [KAT8_Y90_R86G_YF] showed a phosphorylation enrichment of 0.612.
RKVAQYMLENE [SLC16A6_Y224_E221V] showed a phosphorylation enrichment of 0.718.
With FRDMDYRSFPH [RBM10_Y41_R46H_YF] the phosphorylation enrichment was 0.314.
SKHRLYSDLQT [PTCHD1_Y84] showed a phosphorylation enrichment of 0.422.
Sequence NCLRQYVAGRF [CRB1_Y711_E710Q] has a phosphorylation enrichment of 0.337.
Work on KSEMSYIDGEK [SORBS1_Y485] yielded a phosphorylation enrichment of 0.469.
GFAGKYIAMVM [CYP19A1_Y441_C437Y_YF] gave a phosphorylation enrichment of 0.556.
YSIDHYLGKEM [G6PD_Y202_R198S] was tested, and the phosphorylation enrichment was 0.563.
Sequence PDDPDYSLVDD [PSTPIP2_Y323_N322D] has a phosphorylation enrichment of 0.707.

These sequences were tested against FGFR3 (UniProt P22607) in the same assay as above.
Sequence of FGFR3 (P22607 whole entry, looked up): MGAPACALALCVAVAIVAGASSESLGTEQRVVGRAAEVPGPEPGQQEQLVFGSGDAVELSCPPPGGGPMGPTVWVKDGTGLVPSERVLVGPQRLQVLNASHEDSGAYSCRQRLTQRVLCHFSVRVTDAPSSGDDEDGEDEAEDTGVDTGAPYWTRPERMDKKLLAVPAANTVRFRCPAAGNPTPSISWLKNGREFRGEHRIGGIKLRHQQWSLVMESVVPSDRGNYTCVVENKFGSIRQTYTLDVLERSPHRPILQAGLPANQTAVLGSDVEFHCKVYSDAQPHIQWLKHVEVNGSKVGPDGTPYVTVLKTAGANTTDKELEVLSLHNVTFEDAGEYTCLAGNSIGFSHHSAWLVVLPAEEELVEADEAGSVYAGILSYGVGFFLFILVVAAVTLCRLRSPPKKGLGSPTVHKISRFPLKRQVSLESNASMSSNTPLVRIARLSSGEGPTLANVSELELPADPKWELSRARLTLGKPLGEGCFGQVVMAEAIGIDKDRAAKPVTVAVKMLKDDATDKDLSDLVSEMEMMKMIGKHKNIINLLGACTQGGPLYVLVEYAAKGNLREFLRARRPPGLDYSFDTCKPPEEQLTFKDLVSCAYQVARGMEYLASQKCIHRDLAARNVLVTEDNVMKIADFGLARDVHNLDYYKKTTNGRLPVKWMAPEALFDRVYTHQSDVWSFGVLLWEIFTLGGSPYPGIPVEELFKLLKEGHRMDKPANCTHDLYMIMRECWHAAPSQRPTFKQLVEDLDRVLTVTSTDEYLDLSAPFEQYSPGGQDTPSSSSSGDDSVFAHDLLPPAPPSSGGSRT
Work on AGQEDDDRLRP [RAC1_Y64_Y64D] yielded a phosphorylation enrichment of 0.637.
In the case of EPNSRYTCKLE [USH2A_Y3745_Y3747C], the phosphorylation enrichment is reported as 0.724.
RAEAPYLLVSN [LRIG1_Y1054_Q1053P] gave a phosphorylation enrichment of 1.18.
With SEDSEYYRAFE [CASQ2_Y178_K180R] the phosphorylation enrichment was 1.24.
Sequence CEHRGCLFLAI [TEK_Y897_Y897C_YF] has a phosphorylation enrichment of 0.624.
For NPQKSYFIRLY [WAS_Y83], the phosphorylation enrichment was 0.745.
RAHARYCADAC [ACOT4_Y52_R57C] was tested, and the phosphorylation enrichment was 0.395.
KRPAVYIDEEA [EPM2A_Y304] was tested, and the phosphorylation enrichment was 0.704.
Work on KRLAVYIDEEA [EPM2A_Y304_P301L] yielded a phosphorylation enrichment of 0.837.
Work on VVDVTYDDVPI [FLNB_Y1308_E1305D] yielded a phosphorylation enrichment of 0.697.
Sequence ESKKHYGFSLF [ANXA3_Y295_F291S_YF] has a phosphorylation enrichment of 0.678.
In the case of DLLMQHPKAQG [FAM83C_Y600_Y600H], the phosphorylation enrichment is reported as 0.892.
Work on WHHTFYNELCV [ACTC1_Y93_R97C] yielded a phosphorylation enrichment of 0.979.
TVQVAYYTVMM [SPATA17_Y83_M86V] gave a phosphorylation enrichment of 4.63.
Work on PKSWNYELPAT [PROM1_Y34_A31S] yielded a phosphorylation enrichment of 1.65.
With LEKISYVFMKR [SSX7_Y48_YF] the phosphorylation enrichment was 1.42.
Work on CLAKMYFSAVE [CP_Y539_D544E_YF] yielded a phosphorylation enrichment of 0.909.
Work on GEAEQYVGGGG [FAT4_Y4980] yielded a phosphorylation enrichment of 0.687.
In the case of EGTATYAAAIL [JUP_Y644_V648I], the phosphorylation enrichment is reported as 0.586.
For SGVSYYINLCQ [IGF2R_Y2025_N2020S], the phosphorylation enrichment was 0.824.
Sequence GLDGSYLLTDS [SH2D1A_Y29_R32T] has a phosphorylation enrichment of 0.604.
Sequence NYRPGYNNFYN [USH2A_Y467] has a phosphorylation enrichment of 0.606.
VDTLWYKFLKR [EPM2A_Y86_F84L] showed a phosphorylation enrichment of 0.611.
In the case of GGEEFYVHFVG [KAT8_Y90_R86G_YF], the phosphorylation enrichment is reported as 0.96.
RKVAQYMLENE [SLC16A6_Y224_E221V] gave a phosphorylation enrichment of 0.933.
FRDMDYRSFPH [RBM10_Y41_R46H_YF] showed a phosphorylation enrichment of 0.449.
SKHRLYSDLQT [PTCHD1_Y84] was tested, and the phosphorylation enrichment was 0.411.
NCLRQYVAGRF [CRB1_Y711_E710Q] gave a phosphorylation enrichment of 0.467.
Work on KSEMSYIDGEK [SORBS1_Y485] yielded a phosphorylation enrichment of 0.592.
GFAGKYIAMVM [CYP19A1_Y441_C437Y_YF] showed a phosphorylation enrichment of 0.49.
In the case of YSIDHYLGKEM [G6PD_Y202_R198S], the phosphorylation enrichment is reported as 0.617.
With PDDPDYSLVDD [PSTPIP2_Y323_N322D] the phosphorylation enrichment was 1.01.

What follows are sequences tested against Jak2 (UniProt O60674) in the same assay as above.
Sequence of Jak2 (O60674 whole entry, looked up): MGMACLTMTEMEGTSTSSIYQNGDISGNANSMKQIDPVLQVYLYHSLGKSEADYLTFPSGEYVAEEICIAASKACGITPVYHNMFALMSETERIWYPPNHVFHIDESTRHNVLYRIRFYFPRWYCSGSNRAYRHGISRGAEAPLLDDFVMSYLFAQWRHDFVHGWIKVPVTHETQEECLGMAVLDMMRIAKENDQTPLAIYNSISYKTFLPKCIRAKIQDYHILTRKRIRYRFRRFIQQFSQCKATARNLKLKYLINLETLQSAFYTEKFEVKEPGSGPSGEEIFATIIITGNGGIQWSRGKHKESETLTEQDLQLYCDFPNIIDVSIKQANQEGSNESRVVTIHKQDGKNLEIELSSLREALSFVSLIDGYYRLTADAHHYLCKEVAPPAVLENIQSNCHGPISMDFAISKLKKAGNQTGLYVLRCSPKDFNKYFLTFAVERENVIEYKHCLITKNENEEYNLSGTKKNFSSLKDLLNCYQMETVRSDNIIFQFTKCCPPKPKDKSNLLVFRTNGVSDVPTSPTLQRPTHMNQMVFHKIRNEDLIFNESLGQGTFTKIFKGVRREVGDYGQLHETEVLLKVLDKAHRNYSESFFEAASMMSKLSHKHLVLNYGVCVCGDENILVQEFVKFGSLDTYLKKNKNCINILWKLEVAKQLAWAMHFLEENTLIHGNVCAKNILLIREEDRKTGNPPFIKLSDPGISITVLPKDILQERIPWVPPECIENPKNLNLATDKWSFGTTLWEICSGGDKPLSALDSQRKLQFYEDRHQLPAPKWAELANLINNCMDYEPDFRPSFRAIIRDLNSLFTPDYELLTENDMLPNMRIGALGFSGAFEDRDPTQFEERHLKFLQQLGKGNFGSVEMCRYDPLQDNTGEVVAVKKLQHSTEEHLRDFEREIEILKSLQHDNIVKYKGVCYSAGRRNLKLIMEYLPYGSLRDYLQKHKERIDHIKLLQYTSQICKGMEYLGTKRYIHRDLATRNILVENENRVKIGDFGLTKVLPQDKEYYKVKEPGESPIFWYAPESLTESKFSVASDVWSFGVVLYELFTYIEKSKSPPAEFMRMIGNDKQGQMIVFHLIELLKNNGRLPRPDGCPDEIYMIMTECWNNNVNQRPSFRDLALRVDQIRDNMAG
Sequence AGQEDDDRLRP [RAC1_Y64_Y64D] has a phosphorylation enrichment of 1.12.
EPNSRYTCKLE [USH2A_Y3745_Y3747C] gave a phosphorylation enrichment of 0.897.
